# Experimental data from paper PMC4694753 (Molecular Biology of the Cell, 2016).
# Target: GFP-VASP (UniProt P50552 1-380)
# Assay: co-IP
# Sequence of GFP-VASP (P50552 whole entry): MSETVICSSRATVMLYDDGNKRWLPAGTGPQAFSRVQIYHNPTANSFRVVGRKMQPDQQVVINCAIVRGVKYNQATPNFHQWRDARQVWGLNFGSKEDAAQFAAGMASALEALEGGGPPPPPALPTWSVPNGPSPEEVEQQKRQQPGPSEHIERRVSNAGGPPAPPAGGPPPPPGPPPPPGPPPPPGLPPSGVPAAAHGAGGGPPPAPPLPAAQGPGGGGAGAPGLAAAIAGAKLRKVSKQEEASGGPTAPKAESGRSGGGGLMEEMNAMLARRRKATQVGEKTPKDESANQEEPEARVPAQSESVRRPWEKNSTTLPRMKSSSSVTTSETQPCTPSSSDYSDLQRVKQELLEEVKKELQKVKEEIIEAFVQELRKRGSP
binder,measurement,value
endogenous GRASP65 (natural protein) not shown,"amount coimmunoprecipitated, % relative to GFP-Mena",8.2 ± 3.3%
